Laboratory results: US20240010735A1 (EISAI R AND D MANAGEMENT, published 2024)

Legend:
Assay in all cases: ELISA: SEAP-His proteins (1 nM) captured on anti-6-His antibody, antibody B 10 µg/mL with human IgG 100 µg/mL, HRP anti-human IgG, OD450 as % of human EphA4-SEAP-His
[1] = target: T1, human EphB6 extracellular region-SEAP-His protein (human, UniProt O15197 32-594)
T1 construct: extracellular domain; also called Eph receptor extracellular region-SEAP-His protein; not shown: secretory alkaline phosphatase (SEAP); histidine tag
T1 sequence (looked up): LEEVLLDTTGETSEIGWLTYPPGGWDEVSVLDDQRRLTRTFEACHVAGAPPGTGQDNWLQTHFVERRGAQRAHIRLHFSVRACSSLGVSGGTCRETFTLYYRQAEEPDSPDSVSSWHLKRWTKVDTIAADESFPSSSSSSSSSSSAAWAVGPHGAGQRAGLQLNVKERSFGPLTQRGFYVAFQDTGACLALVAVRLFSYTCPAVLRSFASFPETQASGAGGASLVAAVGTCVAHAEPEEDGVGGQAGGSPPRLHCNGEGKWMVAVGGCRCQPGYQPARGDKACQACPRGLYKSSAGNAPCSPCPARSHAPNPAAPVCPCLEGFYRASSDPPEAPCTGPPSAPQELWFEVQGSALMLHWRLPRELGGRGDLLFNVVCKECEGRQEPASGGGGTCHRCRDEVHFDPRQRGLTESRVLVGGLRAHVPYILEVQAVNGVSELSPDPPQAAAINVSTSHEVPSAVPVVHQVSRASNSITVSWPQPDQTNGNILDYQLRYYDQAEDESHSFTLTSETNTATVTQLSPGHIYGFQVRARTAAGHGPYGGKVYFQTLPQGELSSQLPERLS

[2] = target: T2, human EphB4 extracellular region-SEAP-His protein (human, UniProt P54760 16-539)
T2 construct: extracellular domain; also called Eph receptor extracellular region-SEAP-His protein; not shown: secretory alkaline phosphatase (SEAP); histidine tag
T2 sequence (looked up): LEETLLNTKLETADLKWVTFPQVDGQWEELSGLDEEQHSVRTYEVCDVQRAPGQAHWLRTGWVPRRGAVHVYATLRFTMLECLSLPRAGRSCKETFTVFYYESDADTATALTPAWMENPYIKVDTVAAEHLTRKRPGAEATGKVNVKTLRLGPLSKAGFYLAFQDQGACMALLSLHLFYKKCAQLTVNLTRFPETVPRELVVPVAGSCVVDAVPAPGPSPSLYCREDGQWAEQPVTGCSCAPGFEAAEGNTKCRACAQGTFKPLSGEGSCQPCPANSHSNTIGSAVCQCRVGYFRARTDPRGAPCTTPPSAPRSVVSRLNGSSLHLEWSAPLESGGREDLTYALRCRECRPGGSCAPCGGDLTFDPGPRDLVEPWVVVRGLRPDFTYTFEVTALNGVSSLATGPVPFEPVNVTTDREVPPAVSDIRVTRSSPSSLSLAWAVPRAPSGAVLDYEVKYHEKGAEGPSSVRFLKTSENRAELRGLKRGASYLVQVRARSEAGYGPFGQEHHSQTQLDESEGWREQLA

[3] = target: T3, human EphA2 extracellular region-SEAP-His protein (human, UniProt P29317 24-537)
T3 construct: extracellular domain; also called Eph receptor extracellular region-SEAP-His protein; not shown: secretory alkaline phosphatase (SEAP); histidine tag
T3 sequence (P29317 24-537): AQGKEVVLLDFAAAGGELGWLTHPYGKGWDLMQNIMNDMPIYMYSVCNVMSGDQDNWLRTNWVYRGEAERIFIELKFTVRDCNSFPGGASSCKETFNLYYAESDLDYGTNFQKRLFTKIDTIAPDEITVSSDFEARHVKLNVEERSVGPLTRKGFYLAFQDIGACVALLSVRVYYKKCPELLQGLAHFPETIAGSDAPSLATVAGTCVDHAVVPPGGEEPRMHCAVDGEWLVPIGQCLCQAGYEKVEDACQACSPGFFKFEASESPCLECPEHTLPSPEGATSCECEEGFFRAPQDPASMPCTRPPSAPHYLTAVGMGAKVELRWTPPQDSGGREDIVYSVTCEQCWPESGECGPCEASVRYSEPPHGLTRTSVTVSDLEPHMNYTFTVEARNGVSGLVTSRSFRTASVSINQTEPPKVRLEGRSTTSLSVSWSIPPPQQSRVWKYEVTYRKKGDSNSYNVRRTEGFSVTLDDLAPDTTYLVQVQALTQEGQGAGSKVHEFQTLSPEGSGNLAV

[4] = target: T4, human EphA3 extracellular region-SEAP-His protein (human, UniProt P29320 21-541)
T4 construct: extracellular domain; also called Eph receptor extracellular region-SEAP-His protein; not shown: secretory alkaline phosphatase (SEAP); histidine tag
T4 sequence (looked up): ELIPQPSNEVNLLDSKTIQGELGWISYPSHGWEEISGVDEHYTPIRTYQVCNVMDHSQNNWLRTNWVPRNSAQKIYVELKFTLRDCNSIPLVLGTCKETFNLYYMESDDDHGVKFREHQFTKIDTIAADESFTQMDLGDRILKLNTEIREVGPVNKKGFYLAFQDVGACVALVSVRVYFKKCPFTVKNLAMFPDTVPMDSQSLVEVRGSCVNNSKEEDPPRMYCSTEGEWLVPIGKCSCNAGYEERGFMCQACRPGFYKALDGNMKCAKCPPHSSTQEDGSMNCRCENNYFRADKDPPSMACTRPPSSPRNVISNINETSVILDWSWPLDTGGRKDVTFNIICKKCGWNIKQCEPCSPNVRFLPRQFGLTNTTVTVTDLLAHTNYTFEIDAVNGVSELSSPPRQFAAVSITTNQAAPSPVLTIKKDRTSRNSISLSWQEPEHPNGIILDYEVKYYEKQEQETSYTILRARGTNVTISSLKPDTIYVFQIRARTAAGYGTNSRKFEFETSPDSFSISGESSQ

[5] = target: T5, human EphA10 extracellular region-SEAP-His protein (human, UniProt Q5JZY3 34-565)
T5 construct: extracellular domain; also called Eph receptor extracellular region-SEAP-His protein; not shown: secretory alkaline phosphatase (SEAP); histidine tag
T5 sequence (looked up): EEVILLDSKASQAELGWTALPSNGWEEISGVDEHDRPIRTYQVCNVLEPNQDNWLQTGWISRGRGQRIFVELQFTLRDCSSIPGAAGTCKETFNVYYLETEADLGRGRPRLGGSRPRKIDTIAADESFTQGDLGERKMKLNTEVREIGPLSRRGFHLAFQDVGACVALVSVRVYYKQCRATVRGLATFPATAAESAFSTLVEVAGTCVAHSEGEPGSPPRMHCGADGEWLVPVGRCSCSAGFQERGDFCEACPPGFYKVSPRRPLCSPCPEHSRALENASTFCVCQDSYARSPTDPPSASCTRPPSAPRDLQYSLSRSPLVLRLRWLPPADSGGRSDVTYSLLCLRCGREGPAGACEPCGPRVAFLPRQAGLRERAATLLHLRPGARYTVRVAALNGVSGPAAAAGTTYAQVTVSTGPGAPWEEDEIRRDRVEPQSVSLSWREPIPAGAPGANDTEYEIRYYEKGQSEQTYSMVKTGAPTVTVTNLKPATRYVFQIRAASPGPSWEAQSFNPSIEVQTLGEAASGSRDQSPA

Measured: binding result

B1: humanized anti-EphA4 monoclonal antibody (antibody B) (antibody, human IgG2, V domains shown)
VH: QVQLVESGGGVVQPGRSLRLSCAVSGFSLTRFGVHWVRQAPGKGLEWVAVIWRGGSTDYNAAFMSRLTISKDNSKNTVYLQMNSLRAEDTAVYYCAKESLFGVYYDYGYYSMDYWGQGTTVTVSS
VL: DIQMTQSPSSLSASVGDRVTITCRASQEISGYLSWLQQKPGKAPKRLIYAASTLDSGVPSRFSGSRSGTEYTLTISSLQPEDFATYYCLQYASYPLTFGGGTKVEIKR
notes: expressed in Expi293F cells; also called humanized antibody of antibody A; HK2-42 / L1-8
no binding (tested: 10 µg/mL): all assays above
